In the data set the target is Cg-Dss1 (full-length, wild type) (Candida glabrata, UniProt Q6FJE0 24-923). In words: footprinting (RNase I protection); 2 mM ATP, 3 mM MgCl2; RNase I footprinting: 100 nM RNA, 150 nM protein, 20 mM Tris pH 7.4, 50 mM NaCl, 3 mM MgCl2, with or without 2 mM ATP, 30 C; EDTA added before RNase I. Crystal. The note with it: protein: recombinant; tags: His6-MBP removed by TEV; label: 32P body label.

B1: L1 RNA (79 nt) (structured_RNA)
RNA: GGAACUCCAUAUAUGGGCUAUGAACUAAUGACCCCGUAAUUGAUUACUAUUAGCCCGGGCAAUGUGCACAUGUACCCUA
For B1, the binding result is recorded as “binds”.

These data come from publication PMC5758563, “Structural analysis of mtEXO mitochondrial RNA degradosome reveals tight coupling of nuclease and helicase components”.
